In article PMC12098869, “An mRNA-display derived cyclic peptide scaffold reveals the substrate binding interactions of an N-terminal cysteine oxidase” (Nature Communications, 2025):
Several values for one entry are separate records, joined by “and”; a condition that tells them apart may be missing. Equal values may be shown once.

Assays:
Assay in all cases: SPR; biotinylated ADO or ADO mutant immobilised on a Biotin CAP chip (~2500-3000 RU), substrate peptide injected; Biacore T200, 4 °C; 20 mM HEPES pH 7.5, 500 mM NaCl, 10 mM DTT, 0.1% tween-20; 50 µL/minute; multi-cycle or single-cycle mode not given; each cell is one of three independent measurements
Conditions in all cases: both partners purified
[1] = target: T1, ADO-I109A, N-terminally His-tagged and biotinylated (human, UniProt Q96SZ5 1-270, I109A, biotin (biotinylated during expression))
T1 construct: 2-aminoethanethiol dioxygenase (ADO), human, UniProt Q96SZ5, full length, site-directed mutant; source: E. coli Rosetta2(DE3), purified (Ni-NTA, SEC); not shown: biotinylation tag (from the vector pQE80L-Navi), N-terminal, kept
T1 sequence (looked up): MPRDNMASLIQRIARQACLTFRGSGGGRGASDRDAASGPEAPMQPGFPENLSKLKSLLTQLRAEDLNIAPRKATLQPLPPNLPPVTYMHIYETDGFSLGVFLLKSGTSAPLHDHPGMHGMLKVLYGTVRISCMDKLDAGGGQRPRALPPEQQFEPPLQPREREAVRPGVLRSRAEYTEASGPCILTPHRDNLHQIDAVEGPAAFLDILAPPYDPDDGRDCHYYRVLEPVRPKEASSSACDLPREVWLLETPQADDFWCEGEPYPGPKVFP

[2] = target: T2, ADO-Y212A, N-terminally His-tagged and biotinylated (human, UniProt Q96SZ5 1-270, Y212A, biotin (biotinylated during expression))
T2 construct: 2-aminoethanethiol dioxygenase (ADO), human, UniProt Q96SZ5, full length, site-directed mutant; source: E. coli Rosetta2(DE3), purified (Ni-NTA, SEC); not shown: biotinylation tag (from the vector pQE80L-Navi), N-terminal, kept
T2 sequence (looked up): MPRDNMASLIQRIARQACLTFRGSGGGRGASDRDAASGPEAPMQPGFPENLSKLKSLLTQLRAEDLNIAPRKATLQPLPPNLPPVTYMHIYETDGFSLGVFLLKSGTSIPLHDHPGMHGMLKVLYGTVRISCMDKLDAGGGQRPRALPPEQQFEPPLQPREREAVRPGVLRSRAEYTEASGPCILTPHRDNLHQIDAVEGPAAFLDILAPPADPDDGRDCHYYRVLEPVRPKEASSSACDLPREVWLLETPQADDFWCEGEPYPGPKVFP

[3] = target: T3, ADO-F101A, N-terminally His-tagged and biotinylated (human, UniProt Q96SZ5 1-270, F101A, biotin (biotinylated during expression))
T3 construct: 2-aminoethanethiol dioxygenase (ADO), human, UniProt Q96SZ5, full length, site-directed mutant; source: E. coli Rosetta2(DE3), purified (Ni-NTA, SEC); not shown: biotinylation tag (from the vector pQE80L-Navi), N-terminal, kept
T3 sequence (looked up): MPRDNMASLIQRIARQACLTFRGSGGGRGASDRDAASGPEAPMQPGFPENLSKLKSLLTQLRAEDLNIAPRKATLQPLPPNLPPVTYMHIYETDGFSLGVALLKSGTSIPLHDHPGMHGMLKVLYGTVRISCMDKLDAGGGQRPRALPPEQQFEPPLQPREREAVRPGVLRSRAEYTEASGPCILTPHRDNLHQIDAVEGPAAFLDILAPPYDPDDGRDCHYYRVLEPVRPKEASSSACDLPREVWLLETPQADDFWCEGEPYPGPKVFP

[4] = target: T4, ADO-Y87F, N-terminally His-tagged and biotinylated (human, UniProt Q96SZ5 1-270, Y87F, biotin (biotinylated during expression))
T4 construct: 2-aminoethanethiol dioxygenase (ADO), human, UniProt Q96SZ5, full length, site-directed mutant; source: E. coli Rosetta2(DE3), purified (Ni-NTA, SEC); not shown: biotinylation tag (from the vector pQE80L-Navi), N-terminal, kept
T4 sequence (looked up): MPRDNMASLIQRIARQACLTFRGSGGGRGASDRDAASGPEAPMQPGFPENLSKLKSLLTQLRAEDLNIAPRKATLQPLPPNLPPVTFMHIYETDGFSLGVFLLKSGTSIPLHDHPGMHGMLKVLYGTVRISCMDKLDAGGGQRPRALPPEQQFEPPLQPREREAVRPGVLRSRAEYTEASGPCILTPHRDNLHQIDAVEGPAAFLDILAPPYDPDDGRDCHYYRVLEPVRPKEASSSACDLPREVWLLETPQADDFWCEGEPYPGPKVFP

[5] = target: T5, ADO-Y87A, N-terminally His-tagged and biotinylated (human, UniProt Q96SZ5 1-270, Y87A, biotin (biotinylated during expression))
T5 construct: 2-aminoethanethiol dioxygenase (ADO), human, UniProt Q96SZ5, full length, site-directed mutant; source: E. coli Rosetta2(DE3), purified (Ni-NTA, SEC); not shown: biotinylation tag (from the vector pQE80L-Navi), N-terminal, kept
T5 sequence (looked up): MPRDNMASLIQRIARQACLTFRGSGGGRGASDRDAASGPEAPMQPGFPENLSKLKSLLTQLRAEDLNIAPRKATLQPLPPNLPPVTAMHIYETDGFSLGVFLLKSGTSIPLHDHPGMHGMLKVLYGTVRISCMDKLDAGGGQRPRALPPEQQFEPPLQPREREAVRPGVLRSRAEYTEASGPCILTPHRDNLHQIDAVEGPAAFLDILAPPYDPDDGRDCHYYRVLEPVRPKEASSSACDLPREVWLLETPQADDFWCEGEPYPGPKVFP

B1: RGS5(2-15), synthetic peptide corresponding to the methionine excised N-terminus of RGS5, residues 2 to 15 (peptide, UniProt O15539 2-15, looked up)
peptide: CKGLAALPHSCLER
notes: regulator of G-protein signalling 5 (RGS5), residues 2 to 15 (N-terminal Cys exposed); UniProt O15539 is printed for the full-length human protein; also called 14-mer RGS5; source: synthetic peptide
With B1 the Kd [1] was 1.12 µM and 1.24 µM and 1.43 µM, the Kd [2] was 66.5 µM and 90.3 µM and 63.1 µM and the Kd [3] was 42.7 µM and 46.3 µM and 52.3 µM. For the same binder, the Kd [4] was 339 nM (2×) and 336 nM and the Kd [5] was 1.48 µM and 1.65 µM and 1.84 µM.
